Experiment: protein stability index of a GFP-peptide fusion (GPS, HEK-293T) (PSI 1-6); higher = more stable
[1] = parent: IOH13764_23, c terminus: a fixed tail appended
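Further: lentivirally expressed fusions sorted by FACS into six bins by GFP to DsRed ratio, PSI derived from sequencing read proportions per bin multiplied by bin number.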

B1: PCMTD2 WT (peptide)
chain: FFIRTSDSFDKFDFCEPSFVTGNC
protein stability index (parent: IOH21782_22, c terminus: a fixed tail appended): 2.15

B2: BTBD1 WT (peptide)
chain: IVGFGLYGSIHGPTDYQVNIQIIE
protein stability index (parent: IOH21551_61, c terminus: a fixed tail appended): 3.17

B3: CCND2 WT (peptide)
chain: YFKCVQKDIQPYMRRMVATWMLEV
protein stability index (parent: IOH13739_8, c terminus: a fixed tail appended): 2.47

B4: PPP2R2B WT (peptide)
chain: PSNRSFFSEIISSISDVKFSHSGR
protein stability index (parent: IOH22211_46, c terminus: a fixed tail appended): 2.33

B5: TLE6 WT (peptide)
chain: FWHDTLTEQLWRIFAGVHDEKAKP
protein stability index (parent: IOH13956_6, c terminus: a fixed tail appended): 1.76

B6: TFE3 WT (peptide)
chain: ELPNIKREISETEAKALLKERQKK
protein stability index (parent: IOH14020_55, c terminus: a fixed tail appended): 2.4

B7: ZC3H15 WT (peptide)
chain: ENLFTGEDLDELEEELNTLDLEE
protein stability index (parent: IOH14032_69, c terminus: native): 4.42

B8: DVL3 WT (peptide)
chain: YNPHPGFPELGYSYGGGSASSQHS
protein stability index (parent: IOH21682_92, c terminus: a fixed tail appended): 2.58

B9: SOAT1 WT (peptide)
chain: VYYIFERLCAPLFRNIKQEPFSAR
protein stability index (parent: IOH22371_57, c terminus: a fixed tail appended): 2.19

B10: LRRC45 WT (peptide)
chain: DLSAANEKNLLLQNQVDELERKFR
protein stability index (parent: IOH13594_61, c terminus: a fixed tail appended): 4.05

B11: LOC100129726 WT (peptide)
chain: VHTGCHKKLGPEARRPRTRWGKN
protein stability index (parent: IOH21711_9, c terminus: native): 1.97

B12: C2CD2L WT (peptide)
chain: EPAGSLRELGVWRSLLRLRATRAG
protein stability index (parent: IOH21460_10, c terminus: a fixed tail appended): 2.6

B13: KIAA0774 WT (peptide)
chain: FEDEVKRLGWQQQAELQELEERLQ
protein stability index (parent: IOH21722_11, c terminus: a fixed tail appended): 4.08

B14: DVL3 WT (peptide)
chain: SDVVDWLYHNVEGFTDRREARKYA
protein stability index (parent: IOH21682_75, c terminus: a fixed tail appended): 2.98

B15: GLT8D2 WT (peptide)
chain: QEAKLLHWNGRHKPWDFPSVHNDL
protein stability index (parent: IOH13397_52, c terminus: a fixed tail appended): 2.77

B16: TSPAN10 WT (peptide)
chain: EGCGPPLRRWLRANLAASGGYAIA
protein stability index (parent: IOH21852_47, c terminus: a fixed tail appended): 1.89

B17: TFE3 WT (peptide)
chain: FPSDHLGDLGDPFHLGLEDILMEE
protein stability index (parent: IOH14020_85, c terminus: a fixed tail appended): 3.43

B18: TRIM29 WT (peptide)
chain: RKCPVHGKTMELFCQTDQTCICYL
protein stability index (parent: IOH13948_38, c terminus: a fixed tail appended): 2.05

B19: TCAP WT (peptide)
chain: YQRVLPLPIFTPAKMGATKEERED
protein stability index (parent: IOH13813_15, c terminus: a fixed tail appended): 2.04

B20: DVL3 WT (peptide)
chain: FCADNPSELPPPMERTGGIGDSRP
protein stability index (parent: IOH21682_16, c terminus: a fixed tail appended): 4.54

B21: SOAT1 WT (peptide)
chain: GVLILFLTFFAFLHCWLNAFAEML
protein stability index (parent: IOH22371_63, c terminus: a fixed tail appended): 2.73

B22: RAB11A WT (peptide)
chain: AVPTDEARAFAEKNNLSFIETSAL
protein stability index [1]: 2.72

B23: CFHR2 WT (peptide)
chain: FVENGHSESSGQTHLEGDTVQIIC
protein stability index (parent: IOH13657_16, c terminus: a fixed tail appended): 2.78

B24: RAB11A WT (peptide)
chain: AVPTDEARAFAEKNGLSFIETSAL
protein stability index [1]: 2.34

B25: LRRC45 WT (peptide)
chain: FQTRQEMTSMSAELKMRAIQAEER
protein stability index (parent: IOH13594_66, c terminus: a fixed tail appended): 4

B26: LARP4 WT (peptide)
chain: WTVANMEEIKKLTTDPDLILEVLR
protein stability index (parent: IOH13489_15, c terminus: a fixed tail appended): 2.1

B27: DVL3 WT (peptide)
chain: HPDPAPFCADNPSELPPPMERTGG
protein stability index (parent: IOH21682_15, c terminus: a fixed tail appended): 2.73

B28: STX5 WT (peptide)
chain: ESTIVELGSIFQQLAHMVKEQEET
protein stability index (parent: IOH14584_38, c terminus: a fixed tail appended): 2.04

B29: EFHC1 WT (peptide)
chain: NIYYYLEDDSMSVIEPVVENSGIL
protein stability index (parent: IOH14055_21, c terminus: a fixed tail appended): 2.15

B30: SOAT1 WT (peptide)
chain: PSNGRIDIKQLIAKKIKLTAEAEE
protein stability index (parent: IOH22371_7, c terminus: a fixed tail appended): 3.15

B31: WDR88 WT (peptide)
chain: LLTITKAHSNAISNCCFTFSGHFL
protein stability index (parent: IOH21600_45, c terminus: a fixed tail appended): 3.1

B32: GNB5 WT (peptide)
chain: DINSVRYYPSGDAFASGSDDATCR
protein stability index (parent: IOH14466_41, c terminus: a fixed tail appended): 3.92

B33: DVL3 WT (peptide)
chain: FPELGYSYGGGSASSQHSEGSRSS
protein stability index (parent: IOH21682_93, c terminus: a fixed tail appended): 3.14

B34: STX5 WT (peptide)
chain: RSEFTLMAKRIGKDLSNTFAKLEK
protein stability index (parent: IOH14584_7, c terminus: a fixed tail appended): 2.17

B35: DYRK1B WT (peptide)
chain: KKVLNHGYDDDNHDYIVRSGERWL
protein stability index (parent: IOH14793_15, c terminus: a fixed tail appended): 2.93

B36: GNB5 WT (peptide)
chain: YYPSGDAFASGSDDATCRLYDLRA
protein stability index (parent: IOH14466_42, c terminus: a fixed tail appended): 2.4

B37: ZC3H15 WT (peptide)
chain: RKADFKAGKALVISGREVFEFRPE
protein stability index (parent: IOH14032_47, c terminus: a fixed tail appended): 2.82

B38: DYRK1B WT (peptide)
chain: YQGPGTRRLQEVLGVQTGGPGGRR
protein stability index (parent: IOH14793_62, c terminus: a fixed tail appended): 3.2

B39: TRIM29 WT (peptide)
chain: FAEKGELRKSIFSESRKPTVSIME
protein stability index (parent: IOH13948_21, c terminus: a fixed tail appended): 2.01

B40: DYRK1B WT (peptide)
chain: ARKYFERLPGGGWTLRRTKELRKD
protein stability index (parent: IOH14793_58, c terminus: a fixed tail appended): 3.49

B41: C2CD2L WT (peptide)
chain: LTLKVLRSSSCGDTELLGQATLPV
protein stability index (parent: IOH21460_59, c terminus: a fixed tail appended): 2.3

B42: TFE3 WT (peptide)
chain: FHLGLEDILMEEEEGVVGGLSGGA
protein stability index (parent: IOH14020_87, c terminus: a fixed tail appended): 3.6

B43: DYRK1B WT (peptide)
chain: RFQDLVLRMLEYEPAARISPLGAL
protein stability index (parent: IOH14793_68, c terminus: a fixed tail appended): 2.31

B44: PPP2R2B WT (peptide)
chain: RNTKRDVTLEASRENSKPRAILKP
protein stability index (parent: IOH22211_62, c terminus: a fixed tail appended): 4.59

B45: LOC100129726 WT (peptide)
chain: AKAADSPTRNDLESGLGHFSLRVH
protein stability index (parent: IOH21711_5, c terminus: a fixed tail appended): 3.12

B46: PRPH WT (peptide)
chain: DEIEFLKKLHEEELRDLQVSVESQ
protein stability index (parent: IOH21924_38, c terminus: a fixed tail appended): 4.78

B47: BTBD1 WT (peptide)
chain: TSAEIELPDVEPAAFLALLRFLYS
protein stability index (parent: IOH21551_20, c terminus: a fixed tail appended): 2

B48: PDLIM4 WT (peptide)
chain: FLDERLYCESHAKARVKPPEGYDV
protein stability index (parent: IOH13881_50, c terminus: a fixed tail appended): 1.92

B49: TBX6 WT (peptide)
chain: AFLELPHGSGGSGYPAAPPAVPFA
protein stability index (parent: IOH14639_65, c terminus: a fixed tail appended): 2.31

B50: IMPA1 WT (peptide)
chain: FIGEESVAAGEKSILTDNPTWIID
protein stability index (parent: IOH21098_12, c terminus: a fixed tail appended): 2.05

B51: PRPH WT (peptide)
chain: RTFGPPPSLSPGAFSYSSSSRFSS
protein stability index (parent: IOH21924_4, c terminus: a fixed tail appended): 3.3

B52: BTBD1 WT (peptide)
chain: FVLGKGRGAAAAGGPQRIPAHRFV
protein stability index (parent: IOH21551_13, c terminus: a fixed tail appended): 1.88

B53: BTBD1 WT (peptide)
chain: YGSIHGPTDYQVNIQIIEYEKKQT
protein stability index (parent: IOH21551_62, c terminus: a fixed tail appended): 2.54

From the supplement of paper PMC10567573
